Experimental findings from patent US8022177B2, “Peptides and calcium regulation in mammalian cells” (The Board of Trustees of the University of Illinois, priority 2005, dated 2011) are described below.

This assay addresses T1, Cav3.1 (Homo sapiens, UniProt O43497).
T1 construct: expressed in transfected cells; host or cells: HEK-293, stably transfected
As to the kind of experiment: Whole-cell patch clamp of Cav3.1 dependent LVA calcium current in HEK-293/Cav3.1 cells transiently transfected with γ subunits (Example 1). Type of assay: cell-based. The note with it: for Effect on current kinetics or voltage dependency: HEK-293/Cav3.1; for Peak current density, % of control value: HEK-293/Cav3.1, normalized to adCGI vector control, mean±S.E.M.; for Activation V 0.5 / Activation k / Deactivation tau @ −100 mV, Fast / Inactivation Tau @ −20 mV / Inactivation V 0.5 / Inactivation k / Time to peak @ −20 mV / V peak: Table 2. As for the experimental part: 2.3. Transfection. Untransfected HEK-293 cells, HEK-293 cell lines stably transfected with Cav3.1, and HL-1 cells were transiently transfected with vectors containing γ subunit, GFP, and modified CFP cDNAs using Lipofectamine 2000 reagent (InVitrogen) as per the manufacturer's recommendations. HEK-293 cells were grown to 70-80% confluence before transfection. HL-1 cells were grown to 50-75% confluence before transfection.
2.4. Electrophysiology. Whole-cell calcium currents were recorded using an Axopatch-1 D patch clamp system and Clampex 8.0 software. Pipettes were fabricated from borosilicate glass and had typical resistances of 2-4 MΩ. The pipette solution contained (in mM): 130 NaCl, 10 EGTA, 2 MgCl2, 1 CaCl2, 10 HEPES, 3 Tris-ATP, and either 0.3 Li2GTP or 0.3 Tris-GTP, adjusted to pH 7.4 with NaOH and 280 mOsm with sucrose. The bath solution contained (in mM): 137 NaCl (for HEK-293 experiments) or 120 TEACl (for HL-1 experiments), 1 KCl, 1 MgCl2, 0.33 NaH2PO4, 2 CaCl2 (for HEK-293 experiments) or 5 CaCl2 (for HL-1 experiments), 10 glucose (for HL-1 experiments only), 10 HEPES, and 30 μM TTX (for HEK-293 experiments only), adjusted to pH 7.4 with NaOH (for HEK-293 experiments) or TEAOH (for HL-1 experiments) and 280 mOsm with sucrose. NaCl was used as the major salt in the pipette solution order to eliminate any outward K+ currents.
Recordings from HEK-293 cells were made 48-96 h posttransfection, at which time expression, as measured by GFP fluorescence, peaked. HL-1 cells were used for recording 24-36 h post-transfection. Current densities in HEK-293/Cav3.1 cell experiments were normalized to control for variation in current expression in the different frozen stocks of stable cell lines used. […] HL-1 experiments were performed using a single stock of cells. All HEK-293 data are from current records in which pipette and whole-cell capacitance were about 100% compensated and series resistance was compensated to >80%. Whole-cell capacitance and series resistance were not compensated for HL-1 recordings as currents were typically <100 pA. Series resistance values were typically <10 MX, and no records were used in which the voltage error (as defined by Ver=Imax×Ra) was greater than 5 mV. The holding potential of all protocols used for HEK-293 cells was −100 mV except for steady-state inactivation protocols where the holding potential was −120 mV. The holding potential for protocols used for HL-1 cells was −90 mV. Current-voltage relationships for all HEK-293 and HL-1 cells were measured using 50 ms test depolarizations. Peak current amplitudes for activation curves were determined by fitting tail currents, elicited by stepping membrane voltage from varying test potentials to −60 mV, with the Boltzman equation. Test potential steps for activation protocols were of varied durations, corresponding to the time to peak of the elicited current. Inactivation curves were determined by fitting peak amplitudes of currents, observed in a test pulse to −20 mV, following 500 ms steps to varying potentials, with the Boltzman equation. Time to peak was determined using the current-voltage protocol described above. Inactivation time constants were determined by fitting the decay phase of currents to an exponential equation and deactivation time constants were determined by fitting the decay phase of tail currents to an exponential equation. […] Currents were recorded at 40 kHz and on-line filtered at either 5 or 10 kHz. In some cases currents were off-line filtered at 1 kHz to further reduce noise. Current/voltage relationships and tail currents were recorded from HEK cells using an on-line P/−4 subtraction procedure. Calcium currents recorded from HL-1 cells were off-line leak subtracted. The average membrane capacitance of untransfected HEK-293 cells in pilot experiments was 12.5±1.4 pF (n=8). […]
In general terms: Patch clamp records ionic current or voltage across a cell membrane.

T1 sequence (O43497 whole entry): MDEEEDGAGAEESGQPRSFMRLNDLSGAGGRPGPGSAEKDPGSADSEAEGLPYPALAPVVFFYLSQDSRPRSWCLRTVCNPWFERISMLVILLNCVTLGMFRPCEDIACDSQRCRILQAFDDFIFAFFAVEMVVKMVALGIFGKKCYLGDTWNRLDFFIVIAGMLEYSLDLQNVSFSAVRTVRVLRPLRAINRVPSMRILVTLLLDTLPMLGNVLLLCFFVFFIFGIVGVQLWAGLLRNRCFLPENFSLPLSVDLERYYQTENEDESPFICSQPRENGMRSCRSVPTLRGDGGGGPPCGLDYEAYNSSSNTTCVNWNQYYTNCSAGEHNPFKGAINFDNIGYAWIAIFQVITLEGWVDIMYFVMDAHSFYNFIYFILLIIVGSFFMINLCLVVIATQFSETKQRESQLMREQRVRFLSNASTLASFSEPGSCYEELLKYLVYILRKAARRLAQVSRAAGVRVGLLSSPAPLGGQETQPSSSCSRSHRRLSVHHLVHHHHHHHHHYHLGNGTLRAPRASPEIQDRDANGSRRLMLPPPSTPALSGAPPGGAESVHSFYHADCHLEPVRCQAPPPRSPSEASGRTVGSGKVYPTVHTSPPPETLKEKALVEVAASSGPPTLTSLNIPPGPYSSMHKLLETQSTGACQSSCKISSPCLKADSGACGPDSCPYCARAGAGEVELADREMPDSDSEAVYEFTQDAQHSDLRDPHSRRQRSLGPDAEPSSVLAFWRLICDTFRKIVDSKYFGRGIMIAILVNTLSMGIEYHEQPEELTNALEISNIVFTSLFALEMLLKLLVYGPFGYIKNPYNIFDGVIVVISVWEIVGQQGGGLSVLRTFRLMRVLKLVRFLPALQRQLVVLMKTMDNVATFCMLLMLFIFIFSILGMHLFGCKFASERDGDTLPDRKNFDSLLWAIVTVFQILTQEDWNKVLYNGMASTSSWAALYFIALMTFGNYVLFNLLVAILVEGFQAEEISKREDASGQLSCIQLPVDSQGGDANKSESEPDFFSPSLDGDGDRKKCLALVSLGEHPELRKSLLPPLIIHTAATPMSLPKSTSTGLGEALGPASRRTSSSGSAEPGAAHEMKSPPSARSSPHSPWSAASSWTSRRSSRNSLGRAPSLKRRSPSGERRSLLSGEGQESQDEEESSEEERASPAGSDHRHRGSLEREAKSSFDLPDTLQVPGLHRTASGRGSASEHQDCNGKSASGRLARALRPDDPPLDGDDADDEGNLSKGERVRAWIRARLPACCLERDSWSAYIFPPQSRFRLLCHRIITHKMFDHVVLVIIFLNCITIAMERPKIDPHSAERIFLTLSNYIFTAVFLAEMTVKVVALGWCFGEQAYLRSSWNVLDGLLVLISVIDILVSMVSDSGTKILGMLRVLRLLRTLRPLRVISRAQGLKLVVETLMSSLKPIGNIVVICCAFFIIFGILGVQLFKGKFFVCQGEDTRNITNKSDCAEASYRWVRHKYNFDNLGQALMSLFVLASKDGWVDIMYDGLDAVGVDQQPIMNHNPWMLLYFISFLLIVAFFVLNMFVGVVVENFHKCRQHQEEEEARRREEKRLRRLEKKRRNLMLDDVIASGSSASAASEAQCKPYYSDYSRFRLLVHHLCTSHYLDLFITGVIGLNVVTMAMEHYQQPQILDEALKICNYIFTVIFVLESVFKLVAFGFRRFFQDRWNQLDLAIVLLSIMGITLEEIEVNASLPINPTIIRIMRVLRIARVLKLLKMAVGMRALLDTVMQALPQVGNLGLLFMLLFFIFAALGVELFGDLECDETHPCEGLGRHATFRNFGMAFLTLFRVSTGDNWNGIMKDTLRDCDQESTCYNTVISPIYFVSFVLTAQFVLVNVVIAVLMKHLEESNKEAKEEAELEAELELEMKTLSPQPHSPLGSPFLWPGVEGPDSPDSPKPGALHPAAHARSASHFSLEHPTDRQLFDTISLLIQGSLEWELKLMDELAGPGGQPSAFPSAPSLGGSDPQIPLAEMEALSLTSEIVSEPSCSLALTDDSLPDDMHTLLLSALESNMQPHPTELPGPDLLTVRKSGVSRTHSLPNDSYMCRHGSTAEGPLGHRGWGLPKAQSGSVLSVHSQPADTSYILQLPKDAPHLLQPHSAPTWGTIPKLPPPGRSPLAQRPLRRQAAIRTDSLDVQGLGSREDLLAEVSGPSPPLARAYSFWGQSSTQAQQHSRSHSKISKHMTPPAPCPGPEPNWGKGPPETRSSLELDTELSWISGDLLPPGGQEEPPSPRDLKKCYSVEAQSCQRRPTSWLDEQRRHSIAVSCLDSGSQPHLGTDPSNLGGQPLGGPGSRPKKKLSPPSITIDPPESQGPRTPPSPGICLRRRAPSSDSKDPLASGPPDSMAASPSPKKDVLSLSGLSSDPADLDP

B1: γ4: rat calcium channel γ4 subunit (AF361341), SEQ ID NO:47 (protein, listed as Rattus norvegicus)
chain: MVRCDRGLQMLLTTAGAFAAFSLMAIAIGTDYWLYSSAHICNGTNLTMDDGPPPRRARGDLTHSGLWRVCCIEGIYKGHCFRINHFPEDNDYDHDSSEYLLRIVRASSVFPILSTILLLLGGLCIGAGRIYSRKNNIVLSAGILFVAAGLSNIIGIIVYISSNTGDPSDKRDEDKKNHYNYGWSFYFGALSFIVAETVGVLAVNIYIEKNKELRFKTKREFLKASSSSPYSRMPSYRYRRRRSRSSSRSTEASPSRDASPVGLKITGAIPMGELSMYTLSREPLKVTTAASYSPDQDAGFLQMHDFFQQDLKEGFHVSMLNRRTTPV
Take B1: the “Effect on current kinetics or voltage dependency” value is “did not alter current kinetics or voltage dependency”; the “Peak current density, % of control value” was 93%±7%; the “Activation V 0.5” value is −37.3 ± 0.9 (n = 8) mV; the Activation k is listed as 11.8 ± 0.5 (n = 8). Moreover, the “Deactivation tau @ −100 mV, Fast” value was 1.84 ± 0.28 (n = 8) ms; the “Inactivation Tau @ −20 mV” value was 15.8 ± 0.7 (n = 7) ms; the “Inactivation V 0.5” value is listed as −79.2 ± 1.5 (n = 7) mV; the Inactivation k is 6.1 ± 0.2 (n = 7). Further, the “Time to peak @ −20 mV” value is on record as 5.2 ± 0.5 (n = 9) ms and the V peak is −30.6 ± 1.5 (n = 9) mV. Besides, the “Effect on Cav3.1 current” value (HEK-293 cells) is “no significant effect”. Further, under “doubling the amount of γ4 DNA transfected”, the “Peak current, % of control value” was 128%±19%.

B2: γ6L: rat calcium channel γ6 subunit, long isoform (AF361343), SEQ ID NO:48 (protein, listed as Rattus norvegicus)
chain: MMWSNFFMQEEDRRRTAVGRRRAQEQQNLGLTPEREGKIKLGLLVAIVGATLAVLAVGTEFWVELNTYKTNGSAVCEAAHLGLWKVCIKRLWQADVPAGRETCGPAELPGEANCTYFKFFTTGENAHIFQRTTKKEVNLAAAVIAVLGLTAMALGCLCVIMVLSKGAEFLLRLGAVCFGLSGLLLFVSLEVFRHSVRALLQGVNPETPPAPRLAYEYSWSLGCGVGAGLILLLGGVCFLLLTLPSWPWRSLCPKRGGPTA
For the molecule B2, the “Effect on current kinetics or voltage dependency” value was “did not alter current kinetics or voltage dependency”; the “Peak current density, % of control value” is given as 51%±17%; the “Activation V 0.5” value is recorded as −36.3 ± 6.2 (n = 4) mV; the Activation k is 12.7 ± 1.5 (n = 4). Also, the “Deactivation tau @ −100 mV, Fast” value is reported as 1.54 ± 0.48 (n = 4) ms; the “Inactivation Tau @ −20 mV” value is listed as 18.6 ± 1.1 (n = 6) ms; the “Inactivation V 0.5” value is recorded as −78.5 ± 2.6 (n = 6) mV; the Inactivation k is recorded as 5.4 ± 0.3 (n = 6). For the same molecule, the “Time to peak @ −20 mV” value is 6.0 ± 0.8 (n = 5) ms and the V peak is −31.1 ± 3.1 (n = 9) mV. Moreover, the “Decrease in Cav3.1 current density” value (co-expression with Cav3.1 in HEK-293 cells) came to 49%.
